Experimental data reported in PMC5955111, “The multifunctional protein YB-1 potentiates PARP1 activity and decreases the efficiency of PARP1 inhibitors”.

Experiments:
YB-1;PARP1 = YB-1;PARP1 (human;human, UniProt P67809;P09874 1-324;1-1014, |); test: fluorescence anisotropy; 200 nM PARP1, 100 nM DNA, 0-1600 nM YB-1; ternary complex; 1x RB (composition not in the material); anisotropy at 25 C; EMSA: 37 C 10 min, 7.6% native PAGE in 25 mM Tris-borate pH 8.3 at 4 C; DNA 100 nM (anisotropy), 40 nM in Methods vs 100 nM in Figure 1B legend (EMSA); settings: protein: recombinant;recombinant; tags: His-tag;; label: 3'-FAM on ODN1; for gel shift ODN1 also 5'-32P; blunt 32-bp duplex with a nick between ODN2 and ODN3; ODN1:ODN2:ODN3 annealed 1:1.2:1.2
Sequence of YB-1;PARP1 (P67809 whole entry, chain 1 of 2): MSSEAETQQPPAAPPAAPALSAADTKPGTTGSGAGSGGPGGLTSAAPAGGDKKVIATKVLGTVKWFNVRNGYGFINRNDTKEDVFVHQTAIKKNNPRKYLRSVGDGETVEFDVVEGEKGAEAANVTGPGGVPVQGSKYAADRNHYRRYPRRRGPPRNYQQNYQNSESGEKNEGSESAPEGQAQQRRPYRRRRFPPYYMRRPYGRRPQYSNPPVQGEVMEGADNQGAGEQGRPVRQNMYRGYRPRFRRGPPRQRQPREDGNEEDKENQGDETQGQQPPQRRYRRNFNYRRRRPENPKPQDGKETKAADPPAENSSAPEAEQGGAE
Sequence of YB-1;PARP1 (P09874 whole entry, chain 2 of 2): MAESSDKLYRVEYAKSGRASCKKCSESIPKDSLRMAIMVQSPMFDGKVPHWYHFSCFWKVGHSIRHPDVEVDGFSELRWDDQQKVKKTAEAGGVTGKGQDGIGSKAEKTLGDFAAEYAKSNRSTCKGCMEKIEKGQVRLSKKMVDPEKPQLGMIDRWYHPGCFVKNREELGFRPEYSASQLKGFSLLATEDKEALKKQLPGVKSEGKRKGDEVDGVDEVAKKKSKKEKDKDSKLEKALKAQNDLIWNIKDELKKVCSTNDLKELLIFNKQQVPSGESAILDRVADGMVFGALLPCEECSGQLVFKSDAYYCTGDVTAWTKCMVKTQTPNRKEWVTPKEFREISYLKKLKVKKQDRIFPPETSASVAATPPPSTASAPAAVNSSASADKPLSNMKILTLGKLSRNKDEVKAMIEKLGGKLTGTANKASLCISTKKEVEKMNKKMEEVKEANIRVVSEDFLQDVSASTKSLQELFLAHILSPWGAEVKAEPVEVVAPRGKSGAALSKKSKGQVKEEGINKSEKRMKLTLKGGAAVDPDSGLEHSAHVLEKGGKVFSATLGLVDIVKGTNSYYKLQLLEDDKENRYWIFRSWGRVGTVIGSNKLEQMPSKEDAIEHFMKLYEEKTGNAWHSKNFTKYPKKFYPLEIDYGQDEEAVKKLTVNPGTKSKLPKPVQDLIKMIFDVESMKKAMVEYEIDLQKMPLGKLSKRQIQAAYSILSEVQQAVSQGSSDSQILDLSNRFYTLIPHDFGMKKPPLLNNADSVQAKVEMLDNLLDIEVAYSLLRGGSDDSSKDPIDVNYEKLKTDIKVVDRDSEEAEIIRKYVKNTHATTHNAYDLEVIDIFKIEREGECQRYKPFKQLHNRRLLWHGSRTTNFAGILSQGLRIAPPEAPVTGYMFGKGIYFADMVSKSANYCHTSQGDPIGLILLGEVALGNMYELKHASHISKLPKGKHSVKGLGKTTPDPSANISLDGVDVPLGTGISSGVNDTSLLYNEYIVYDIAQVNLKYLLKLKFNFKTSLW

YB-1 = YB-1 (human, UniProt P67809 1-324); test: fluorescence anisotropy; no PARP1; 100 nM DNA, 0-1600 nM YB-1; 1x RB (composition not in the material); anisotropy at 25 C; EMSA: 37 C 10 min, 7.6% native PAGE in 25 mM Tris-borate pH 8.3 at 4 C; DNA 100 nM (anisotropy), 40 nM in Methods vs 100 nM in Figure 1B legend (EMSA); settings: protein: recombinant; tags: His-tag; label: 3'-FAM on ODN1; for gel shift ODN1 also 5'-32P; blunt 32-bp duplex with a nick between ODN2 and ODN3; ODN1:ODN2:ODN3 annealed 1:1.2:1.2
Sequence of YB-1 (P67809 whole entry): as the sequence (P67809 whole entry, chain 1 of 2) above

B1: Nick (ODN1+ODN2+ODN3) (dsDNA)
DNA 1: GGAAGACCCTGACGTTTCCCAACTTTATCGCC
DNA 2: GGCGATAAAGTTGGG
DNA 3: AAACGTCAGGGTCTTCC
B1: binds (YB-1;PARP1); binds (YB-1).
